The values below come from PMC5473870, “Crystal structure of the DNA-binding domain of Myelin-gene Regulatory Factor” (Scientific Reports, 2017).

The data set concerns the molecule itself. Kind of data set: SEC; gel filtration on Superdex-200, 20 mM Tris-HCl pH 7.4, 50 mM NaCl, 5% glycerol; calibrated with ferritin, BSA and ovalbumin.

B1: MyRF DBD core (proteolytically resistant, after limited proteolysis with trypsin) (domain or fragment, mouse)
chain: IKWQPHQQNKWATLYDANYKELPMLTYRVDADKGFNFSVGDDAFVCQKKNHFQVTVYIGMLGEPKYVKTPEGLKPLDCFYLKLHGVKLEALNQSINIEQSQSDRSKRPFNPVTVNLPPEQVTKVTVGRLHFSETTANNMRKKGKPNPDQRYFMLVVALQAHAQNQNYTLAAQISERIIVRAS
modifications: selenomethionyl substituted in the crystals (4 Se per molecule)
notes: Myelin-gene Regulatory Factor (MyRF), mouse, NP_001028653.1; trypsin-resistant core of about 24 kD, 210 residues, made from the expressed fragment 351-717; PDB 5H5P holds the crystallised chain; also called MyRF DBD core only; MyRF DBD (crystal structure); source: E. coli BL21 (DE3), nickel-sepharose, limited proteolysis with trypsin, purified (Superdex-75)
By stoichiometry N is commonly meant a count of units in the complex or per binding partner. With B1, the “stoichiometry N” value turned out to be 3.

B2: MyRF DBD after auto-cleavage (351–586 plus N-terminal his tag and linker) (domain or fragment, mouse, UniProt Q3UR85-3 351-586, looked up)
chain: IKWQPHQQNKWATLYDANYKELPMLTYRVDADKGFNFSVGDDAFVCQKKNHFQVTVYIGMLGEPKYVKTPEGLKPLDCFYLKLHGVKLEALNQSINIEQSQSDRSKRPFNPVTVNLPPEQVTKVTVGRLHFSETTANNMRKKGKPNPDQRYFMLVVALQAHAQNQNYTLAAQISERIIVRASNPGQFESDSDVLWQRAQLPDTVFHHGRVGINTDRPDEALVVHGNVKVMGSLMHP
notes: Myelin-gene Regulatory Factor (MyRF), mouse, NP_001028653.1; N-terminal product (351-586) of auto-cleavage of the expressed fragment 351-717 (DBD and ICA); also called wild type MyRF DBD; source: E. coli BL21 (DE3), expressed as fragment 351-717, auto-cleaved, purified (nickel-sepharose); not shown: His6, N-terminal, kept
As for B2, the “stoichiometry N” value amounted to 3.
